According to PMC9133651, “Elucidation of physico-chemical principles of high-density lipoprotein–small RNA binding interactions”:

Biological target: apolipoprotein A-I (lipid-free) (Homo sapiens, UniProt P02647 25-267)
Experiment: MST; Kd only in figure; MST: 100 nM AF647 oligo (90 C 2 min, cooled) mixed 1:1 with ligand in PBS, RT, 5 min; EMSA: 1 uM AF546 oligo, UV 254 nm 15 min on ice, 4-16% NativePAGE, 0.5x TBE
Conditions: protein: native; label: 3' Alexa Fluor 647

Sequence of apolipoprotein A-I (lipid-free) (P02647 25-267): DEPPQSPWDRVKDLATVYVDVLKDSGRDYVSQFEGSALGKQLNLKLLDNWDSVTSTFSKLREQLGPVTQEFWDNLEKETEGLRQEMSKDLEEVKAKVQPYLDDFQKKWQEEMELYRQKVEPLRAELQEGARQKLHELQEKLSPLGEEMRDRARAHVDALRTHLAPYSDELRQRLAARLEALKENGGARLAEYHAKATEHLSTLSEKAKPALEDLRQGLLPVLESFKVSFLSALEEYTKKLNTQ

Binder	binding result
UGUCAGUUUGUCAAAUACCCCA (ssRNA) [miR-223-3p]	binds
CCUGGUGGUCUAGUGGUUAGGAUUCGGCGC (ssRNA) [tDR-GluCTC-30]	binds
UUUGUUCGUUCGGCUCGCGUGA (ssRNA) [miR-375-3p]	binds
